Target: FIP200 (full length) (human, UniProt Q8TDY2 1-1594)
Experiment: pull-down

Chain of FIP200 (full length) (Q8TDY2 whole entry): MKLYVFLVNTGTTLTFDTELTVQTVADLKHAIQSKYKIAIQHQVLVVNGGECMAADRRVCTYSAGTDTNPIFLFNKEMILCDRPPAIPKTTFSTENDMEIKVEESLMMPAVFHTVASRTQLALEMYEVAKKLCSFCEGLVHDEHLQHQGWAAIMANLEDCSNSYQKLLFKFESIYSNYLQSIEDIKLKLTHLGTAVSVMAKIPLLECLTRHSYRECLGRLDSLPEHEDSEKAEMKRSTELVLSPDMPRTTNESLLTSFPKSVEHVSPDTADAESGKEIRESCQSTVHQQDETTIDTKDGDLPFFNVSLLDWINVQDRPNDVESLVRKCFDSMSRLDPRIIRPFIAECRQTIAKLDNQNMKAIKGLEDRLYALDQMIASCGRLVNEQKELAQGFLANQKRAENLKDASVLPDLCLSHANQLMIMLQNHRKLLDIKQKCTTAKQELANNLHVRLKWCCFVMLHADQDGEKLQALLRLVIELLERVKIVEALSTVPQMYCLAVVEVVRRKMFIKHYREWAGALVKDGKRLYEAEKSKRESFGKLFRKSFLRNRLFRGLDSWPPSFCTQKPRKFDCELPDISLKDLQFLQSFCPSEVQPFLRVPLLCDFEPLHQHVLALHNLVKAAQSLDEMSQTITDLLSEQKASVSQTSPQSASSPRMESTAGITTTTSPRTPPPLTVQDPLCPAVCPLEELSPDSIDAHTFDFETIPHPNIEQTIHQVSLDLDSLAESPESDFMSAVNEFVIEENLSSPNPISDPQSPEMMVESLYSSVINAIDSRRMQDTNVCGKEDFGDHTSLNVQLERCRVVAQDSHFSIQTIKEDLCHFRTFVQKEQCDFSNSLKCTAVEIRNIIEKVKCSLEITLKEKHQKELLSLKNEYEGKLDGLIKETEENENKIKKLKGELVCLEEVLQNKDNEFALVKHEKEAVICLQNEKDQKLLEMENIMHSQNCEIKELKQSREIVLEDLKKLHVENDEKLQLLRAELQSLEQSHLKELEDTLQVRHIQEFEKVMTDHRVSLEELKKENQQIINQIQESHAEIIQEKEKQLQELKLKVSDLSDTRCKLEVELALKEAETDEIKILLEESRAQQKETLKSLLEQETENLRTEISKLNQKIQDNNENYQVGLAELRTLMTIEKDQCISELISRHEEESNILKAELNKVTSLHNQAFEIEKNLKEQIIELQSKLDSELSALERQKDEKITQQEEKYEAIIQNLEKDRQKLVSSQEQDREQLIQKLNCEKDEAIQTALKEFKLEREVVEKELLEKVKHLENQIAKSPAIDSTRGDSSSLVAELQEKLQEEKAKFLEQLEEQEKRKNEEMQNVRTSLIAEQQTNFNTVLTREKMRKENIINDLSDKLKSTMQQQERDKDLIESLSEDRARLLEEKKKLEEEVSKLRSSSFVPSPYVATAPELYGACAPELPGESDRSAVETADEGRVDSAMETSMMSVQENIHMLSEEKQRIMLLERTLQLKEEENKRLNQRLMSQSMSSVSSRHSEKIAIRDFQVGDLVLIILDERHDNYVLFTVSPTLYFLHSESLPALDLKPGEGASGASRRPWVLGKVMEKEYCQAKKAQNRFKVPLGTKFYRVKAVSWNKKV

binding result: binds
B1: ULK1 (full length) (enzyme)
chain: MEPGRGGTETVGKFEFSRKDLIGHGAFAVVFKGRHREKHDLEVAVKCINKKNLAKSQTLLGKEIKILKELKHENIVALYDFQEMANSVYLVMEYCNGGDLADYLHAMRTLSEDTIRLFLQQIAGAMRLLHSKGIIHRDLKPQNILLSNPAGRRANPNSIRVKIADFGFARYLQSNMMAATLCGSPMYMAPEVIMSQHYDGKADLWSIGTIVYQCLTGKAPFQASSPQDLRLFYEKNKTLVPTIPRETSAPLRQLLLALLQRNHKDRMDFDEFFHHPFLDASPSVRKSPPVPVPSYPSSGSGSSSSSSSTSHLASPPSLGEMQQLQKTLASPADTAGFLHSSRDSGGSKDSSCDTDDFVMVPAQFPGDLVAEAPSAKPPPDSLMCSGSSLVASAGLESHGRTPSPSPPCSSSPSPSGRAGPFSSSRCGASVPIPVPTQVQNYQRIERNLQSPTQFQTPRSSAIRRSGSTSPLGFARASPSPPAHAEHGGVLARKMSLGGGRPYTPSPQVGTIPERPGWSGTPSPQGAEMRGGRSPRPGSSAPEHSPRTSGLGCRLHSAPNLSDLHVVRPKLPKPPTDPLGAVFSPPQASPPQPSHGLQSCRNLRGSPKLPDFLQRNPLPPILGSPTKAVPSFDFPKTPSSQNLLALLARQGVVMTPPRNRTLPDLSEVGPFHGQPLGPGLRPGEDPKGPFGRSFSTSRLTDLLLKAAFGTQAPDPGSTESLQEKPMEIAPSAGFGGSLHPGARAGGTSSPSPVVFTVGSPPSGSTPPQGPRTRMFSAGPTGSASSSARHLVPGPCSEAPAPELPAPGHGCSFADPITANLEGAVTFEAPDLPEETLMEQEHTEILRGLRFTLLFVQHVLEIAALKGSASEAAGGPEYQLQESVVADQISLLSREWGFAEQLVLYLKVAELLSSGLQSAIDQIRAGKLCLSSTVKQVVRRLNELYKASVVSCQGLSLRLQRFFLDKQRLLDRIHSITAERLIFSHAVQMVQSAALDEMFQHREGCVPRYHKALLLLEGLQHMLSDQADIENVTKCKLCIERRLSALLTGICA
